# According to article PMC4075756 (Nature, 2011):
# B1: rat dynamin 1 lacking the proline-rich domain (Dyn1 ΔPRD) (domain or fragment)
# chain: MGNRGMEDLIPLVNRLQDAFSAIGQNADLDLPQIAVVGGQSAGKSSVLENFVGRDFLPRGSGIVTRRPLVLQLVNSTTEYAEFLHCKGKKFTDFEEVRLEIEAETDRVTGTNKGISPVPINLRVYSPHVLNLTLVDLPGMTKVPVGDQPPDIEFQIRDMLMQFVTKENCLILAVSPANSDLANSDALKIAKEVDPQGQRTIGVITKLDLMDEGTDARDVLENKLLPLRRGYIGVVNRSQKDIDGKKDITAALAAERKFFLSHPSYRHLADRMGTPYLQKVLNQQLTNHIRDTLPGLRNKLQSQLLSIEKEVDEYKNFRPDDPARKTKALLQMVQQFAVDFEKRIEGSGDQIDTYELSGGARINRIFHERFPFELVKMEFDEKELRREISYAIKNIHGIRTGLFTPDLAFEATVKKQVQKLKEPSIKCVDMVVSELTSTIRKCSEKLQQYPRLREEMERIVTTHIREREGRTKEQVMLLIDIELAYMNTNHEDFIGFANAQQRSNQMNKKKTSGNQDEILVIRKGWLTINNIGIMKGGSKEYWFVLTAENLSWYKDDEEKEKKYMLSVDNLKLRDVEKGFMSSKHIFALFNTEQRNVYKDYRQLELACETQEEVDSWKASFLRAGVYPERVGDKEKASETEENGSDSFMHSMDPQLERQVETIRNLVDSYMAIVNKTVRDLMPKTIMHLMINNTKEFIFSELLANLYSCGDQNTLMEESAEQAQRRDEMLRMYHALKEALSIIGDINTTTVST
# Biological target: the molecule itself
# Test: SEC + other: sucrose gradient centrifugation
protein,measurement,value
B1,stoichiometry N,2
